{"source": "the supplement of paper PMC12636428"}
{"test_system": "Saccharomyces cerevisiae", "assay": "transcriptional activation domain activity (GFP:mCherry ratio, weighted mean of sorted bins, harmonized to initial dataset scale) (arbitrary fluorescence ratio units); higher = stronger transcriptional activation", "conditions": "beta-estradiol 1 µM; induction time 4 h", "in_short": "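Each value is an activation activity: the read-weighted mean of bin median fluorescence, averaged across barcodes, then mapped linearly to the initial dataset scale. The tiles, fused to an estradiol-inducible synthetic transcription factor, sat at the yeast URA3 locus in GFP-reporter diploids. Cells spent 4 hours at 30 °C in SC with 1 uM beta-estradiol before sorting into 8 GFP:mCherry bins, and tiles below 50 reads were removed.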"}
{"sequence": "MLSVRVVVLFAGHLCFLSSSYVLIRCFGDGFNSFVSFRFSSVWWWYLHTLCTH", "transcriptional activation domain activity": 87900}
{"sequence": "IWSFVILLRETVLCGSIVLAISATSDYFYYGLWTFPPYQWLNFNLTQSLAVFY", "transcriptional activation domain activity": 66800}
{"sequence": "HLLILRFVAHFSHLGLGCSSYSLMFYVLSYLLYISLLSNIISLYPPSCLYLAH", "transcriptional activation domain activity": 45400}
{"sequence": "DRMRENGLLSLSDLREYFVCWWRFEKMYRTLIIAETWMDLQAYKVKTLAWLHG", "transcriptional activation domain activity": 63200}
{"sequence": "YFVYLLQLIYYICFSIGVSFSMKVFDYVTFMDSITGHAGHMLCVCIFFLIGAV", "transcriptional activation domain activity": 75800}
{"sequence": "MGTLLFVFMYYGWAFFLDYFIWCFVVSLCFWYKVCLAVLLLAFDVYCHLWCMI", "transcriptional activation domain activity": 60200}
{"sequence": "LACFLGLTFTLFLLIYFFFLSIFSFIILSLLCVLHHSACLPCLNFHMLPFCPF", "transcriptional activation domain activity": 61100}
{"sequence": "MALNLFQKEIFLILFLLFYYFAILLFCYFIILLFCYLIFLFFLFHLSLSSLIF", "transcriptional activation domain activity": 26300}
{"sequence": "MRPLSWRLWRTGDSNRELLSHFLFYLGLFFFFREWLFLVLFFLFLLLLLPGVR", "transcriptional activation domain activity": 26600}
{"sequence": "MAGAVPVLMLILLLLSHLCTAFKFYSESGFALVRKILLTALPTFEPHHYQMDG", "transcriptional activation domain activity": 71600}
{"sequence": "EQAPREGQGQGRGRGGRPRGEGRGRGGRGRGRGAPAGNGAAEAAATTAPKSTE", "transcriptional activation domain activity": 21700}
{"sequence": "SSSRRRSQSPAAEASRSRRERSRDRSDAEDEGGSRSGSRRRRRRGSAEPREED", "transcriptional activation domain activity": 41600}
{"sequence": "NQFSKPQVWSVGVFWWSIWLSCVWLGWWLCRLASFLAPRVLKFTIAIWMLVIY", "transcriptional activation domain activity": 40800}
{"sequence": "TSTTPAGAPPADKPAGSLFGVKPAAAGSSSGGLFGQASNTSVAPSSIATTTAS", "transcriptional activation domain activity": 28400}
{"sequence": "HLNPSWIFLFLFLFLFSPSPFYFLFLFFFFFFGGVPGNGFGFGILLYFFAAGI", "transcriptional activation domain activity": 45700}
{"sequence": "GARTGKDKEKEKDKEKDKGARRSSCRSWSRDRGRSRSRSPRRDRERDRERGRG", "transcriptional activation domain activity": 31500}
{"sequence": "IQAAGLWQCRYSSYGIECVRYVFFFTMFLFLLRSGWYLSSAFFLGLLWHQLSF", "transcriptional activation domain activity": 39600}
{"sequence": "MFVFHMFVFYFVCLFFICLSFILYALFFMSYFYFLLVYFDICFLFLYLFLIFI", "transcriptional activation domain activity": 15300}
{"sequence": "AAAPAPEPAPKKGRPGRKPAAKSEPEAVEEKTEDAPKKRGRRSTLIPEPVEET", "transcriptional activation domain activity": "< 6570"}
{"sequence": "SWRRLPLAMLNFSRAVTFRWTIIIARTYSLNLADVLLTGMYITILFTWNFHNS", "transcriptional activation domain activity": 40000}
{"sequence": "MMLWWRWRWILLLMLMLMLRWRWWWHTSLWWRWSKCLLTRLLLLLLLWWWDSF", "transcriptional activation domain activity": 55000}
{"sequence": "MSSMHKLVTIFTGQGRVLSFFSLCVLRGLYYYSLLLRYLYFTLLVFFLSLFPF", "transcriptional activation domain activity": 49100}
{"sequence": "MVSYLIGALDIHMYGIWFWPFWLFESWASWIGLRDVFYLFIFFPLFFSLYSTL", "transcriptional activation domain activity": 49600}
{"sequence": "KKASSSAVGEGKKKSASKPRTSSAGGASVDGQPKKPKQSKKKAASGSKGGAGS", "transcriptional activation domain activity": 28500}
{"sequence": "YTRQLALGCVTRLLWTYLFRCTESTVIAFKKLDGIIKTLFPPFRRTIYPSETP", "transcriptional activation domain activity": 61400}
{"sequence": "KWIVPTPFASHAFHCLDGYFQSIPYHLYVYLVPMQKWLYISMFLFVNVWTVMI", "transcriptional activation domain activity": 48400}
{"sequence": "FDYDMFFRDSSKEGNNLFGEFLEDDDDDKKAANMSDDESSLIKNQLINEEPEL", "transcriptional activation domain activity": 41400}
{"sequence": "PASNGHAEPETKPEPEAAPEPVEEKAATPAPATPAQPSPAPTPAPAAAAPSPA", "transcriptional activation domain activity": 10200}
{"sequence": "DHSDKIDKKRKDEDDSKRSKSDRKSKRDEERFSDSDKGARLDKDHSKSSRSKS", "transcriptional activation domain activity": 43500}
{"sequence": "WLRPPRWACGRRALLLLSMGLGTVMLLILTGLLTMNQSNGAKLPVVMVFVILF", "transcriptional activation domain activity": 32600}
{"sequence": "LQAARSADIAISQFRYLKKLLLVHGAWSYRRLATLILYSFYKNVVLYMTQFWF", "transcriptional activation domain activity": 65100}
{"sequence": "GLNLPKISASYLCQYRGSLIGKHFKAIVQLMCFLCYDLLPAPLLNAWLILGRL", "transcriptional activation domain activity": 70900}
{"sequence": "LMILMIINFIILNIPVAVILLIYFVFKIGFYVFIWKRIRFISILLRATVSHLR", "transcriptional activation domain activity": 62900}
{"sequence": "VCVANIFVVFSLYSYTWIQAVVISLSILVYYAFIAIYAQFNTFLFAGQIRLFG", "transcriptional activation domain activity": 70400}
{"sequence": "KSEKPEKERKHRDKGEREHRDRSEREHKVREPKEPREKGEKEKRHKTAEEKAG", "transcriptional activation domain activity": 16900}
{"sequence": "SGLVIIFFMITRYFTATAEHLDHLSRCKVHNVPPYSYVFWICILGLELLLCSL", "transcriptional activation domain activity": 48600}
{"sequence": "LSRVTGKEHDQMCRIVLGILVDLRLPDNQNPTRLIWAVRALLDFLYLAQYPIH", "transcriptional activation domain activity": 67200}
{"sequence": "KPHGKQAAESTRGQSTTGTNSTTSNSSRASGSRRQETDRGKEGKSNKASSSSG", "transcriptional activation domain activity": 21900}
{"sequence": "KQYCVRPNSGRIEPGKDVEVQVLLQAMKEDPAPDAKCRDKFLVQSVAVTADKE", "transcriptional activation domain activity": 44600}
{"sequence": "NNTTSLGNAYGVCVMFVTFFDSCMVSLAALIVWRLPYYVVFLPWLVFACLDGV", "transcriptional activation domain activity": 52100}
{"sequence": "KWKEKRSRNDEADGERGAERKPRKRSRSPRRRKEPEAAPERKQQEKPASAAPA", "transcriptional activation domain activity": 45600}
{"sequence": "LIVMRDRVEIIMLLWPIINIAFVILVGYDSDVTKSIRRLRQKYWSSLSVMAST", "transcriptional activation domain activity": 68600}
{"sequence": "ALYLWTRHVGFANFVKLYFVPFMCVNHWIVMLTYLHHCDPTIPYFRRTQWSFL", "transcriptional activation domain activity": 30800}
{"sequence": "YETRPHAHVQEAVLTNRLTSAALYNPGRIAVLPLVCVWRDERTVVVFVHLVLT", "transcriptional activation domain activity": 21400}
{"sequence": "RCMVIYRSSGFFFWAIVLLPCLMFLASFSESLFQYISSPSFTVTVRLGLGILF", "transcriptional activation domain activity": 63200}
{"sequence": "YLEWLLLHHIHTIVGRRKDINWHIVCMDRWNIWYNTLRLSDTFALVGIIISIF", "transcriptional activation domain activity": 58500}
{"sequence": "DEDRRKRRRSRSRSPDREEESSRRRRDRSRSRSKDADRKKRKRDKSEERKARK", "transcriptional activation domain activity": 30900}
{"sequence": "IPSLLSLSFYCLGFLSFAISSFSFPSFPLYHYPLCLGFLYSAGWLVGGYLWLY", "transcriptional activation domain activity": 77000}
{"sequence": "QLTAQQLIENAIESGVVDLETLDLPPFLSLDGLPPASSSAAVAASEQIDICPS", "transcriptional activation domain activity": 133000}
{"sequence": "FIVLYLSHRQLIIVNPCYLLGHHACSLLCLLILHNFHIWLSYVGTVLFCFCFS", "transcriptional activation domain activity": 78400}
{"sequence": "VSSSSSSSSRTRKGGGDDEEVEGKERSATENKKKKLGKKGRIAARTKEKAAAA", "transcriptional activation domain activity": 6920}
{"sequence": "RGFVVMLEGLFICGGLVIQAFLNLGLSHATGGVTWRFSLAFSCFFDLVVFFSI", "transcriptional activation domain activity": 46600}
{"sequence": "KYNLALILAGFFRFIPWISVLLLLLLSLSPRARSLFPWPISSILLLYTLADTI", "transcriptional activation domain activity": 39400}
{"sequence": "ESGCGREDMTVKSGIVFSFYFFCCLFFFLLSLFVCFPPPFFFILLFPIFIHLY", "transcriptional activation domain activity": 18900}
{"sequence": "VDASTIARLSSPELGAREQLRQEEERRRKIERRARRRERRERERSSALLHLTG", "transcriptional activation domain activity": 33400}
{"sequence": "KGFSLTELVFWLWSLGFILDELVGFSDAGFTLYVMSLWNWFDLIILLLLCSYA", "transcriptional activation domain activity": 49900}
{"sequence": "FHRGGSNGSNSNNNNNAGDLQHHQHAGINKTTANVSEKYHWNRIKGTVTDVIE", "transcriptional activation domain activity": 28300}
{"sequence": "MSEPPRKRAKLACVTCNARRVKCDVTERQPCSNCIAGNALCETRESKRGKHPR", "transcriptional activation domain activity": 15300}
{"sequence": "KTIGKQDPYCAARLGKEAKKTETDRRGGQTPRWDQELRFTVHDSPDYYQLKVS", "transcriptional activation domain activity": 55000}
{"sequence": "AGIRLLERAWYWLHGRYRFTAGYVAELLLNGFKRPHGLLNAYVHHFTNFNITD", "transcriptional activation domain activity": 72000}
{"sequence": "KTTGPDARISHTSVQRFASYLGLRVALDRLRLQLAAATTIRHFISRLSRVLVF", "transcriptional activation domain activity": 50600}
{"sequence": "YGALGDNTVTLRRPDDSDIVVLFDDMVVHAWIKMLIVAKLICCVILRRTAALG", "transcriptional activation domain activity": 46500}
{"sequence": "MFCLRSWLPLLFIPTNASPVFILLFFIGTYFLNRPCVYCSLLLLILFSTSCVW", "transcriptional activation domain activity": 39400}
{"sequence": "MPFYMPSKGLAIKDFVGQIALIIKVYVNPITLVSISYHYYMFFLSLNCLWLFL", "transcriptional activation domain activity": 65100}
{"sequence": "ALRDSKSSDPKVKKEGEDFLAQLRIGKSYLHGLDAEGRPMCIVRARLHRAGEQ", "transcriptional activation domain activity": 48900}
{"sequence": "ERKEAKEQTRRETESKARRGADKEGSEENREDEEGEKKERTSESTDKQKSRRT", "transcriptional activation domain activity": 33700}
{"sequence": "MTMRKSFEYSFSREIYFLFFFLFFSFLFFLSFLSFSLSLFFFFPLHPGLFRLV", "transcriptional activation domain activity": 54400}
{"sequence": "EQVAPKFWKHGLFWAMCNEGMWLKELEFYYMINYYFKYLELLDTVFLALKKKP", "transcriptional activation domain activity": 40200}
{"sequence": "AGQVVQETVHRAGDALKETAESAAQHVFSPRRRRRRRRSSRTGSERAVVCCSR", "transcriptional activation domain activity": 62000}
{"sequence": "CLHFQFSLLFLLCLYVCVGWIFYACILSYLPPLLFIVSFVTILQRTAFCFGEE", "transcriptional activation domain activity": 45000}
{"sequence": "TIDSSGVVLTPDPLSFDIGNFDSFSTSLYGFWPLTNAFDFTPYNSGSLAWLLL", "transcriptional activation domain activity": 99800}
{"sequence": "MLFSTFFHFMILLCFLLLLCFFYFYDFTYLYGPPMIFYFYYFSLCLYLNKLQF", "transcriptional activation domain activity": 41600}
{"sequence": "EGYDLLPFRLGCAYVVLGWYWISTTWVEAEPVSQGVKPPKDRDYFHRVKLRFD", "transcriptional activation domain activity": 42200}
{"sequence": "GLANYLKPVHDQKLIIFIEILILLWAVLVYSTVQVARGATGFYLPTVLYNIYL", "transcriptional activation domain activity": 49300}
{"sequence": "DREKRSSGHRNGRRHRGHRSGRKQRRSRSRSRGDRPDSPVRAKEGEGGAKDRK", "transcriptional activation domain activity": "< 6570"}
{"sequence": "ICVLEKMLLFYFYFPLPFKLTLDQHLSLFSLLCFFFRVMPYTFWLKSYPMLVL", "transcriptional activation domain activity": 74200}
{"sequence": "LFTFRLLRICGPFVARLPSAERLLGWSTLASILGLWWNPRFAQVFRGFTRHIS", "transcriptional activation domain activity": 61800}
{"sequence": "METATPPQPKKGRRGNPKTRTGCVTCKMRRVKCDEAKPQCKRCISTGRTCDGY", "transcriptional activation domain activity": 15500}
{"sequence": "ATLNLIFTIDLLNFSFWSELPEDERFCIEYRGKRWTGYWSLVAALQRALDEGV", "transcriptional activation domain activity": 39000}
{"sequence": "MILTSHLSFILFLFLFLFPFSFSSFLPFYLHYLFILPSILIFPSPPFLPSLFL", "transcriptional activation domain activity": 51200}
{"sequence": "QLYSNNFQQSYPNGMVPGYYPKMPYNPMGGDPLLDQAFYGADDFFFPPEGCDN", "transcriptional activation domain activity": 77800}
{"sequence": "VLVVVVALPVVAVMVIMVVVVVVVVVVAIIGGGGWWMWLGLWLRLLIEMDVGA", "transcriptional activation domain activity": 32900}
{"sequence": "VQASMAADYAISQFRFLHKLLLVQGHWSYARISEMILTFFFKNIFWVFPSLWY", "transcriptional activation domain activity": 56100}
